Assay results as given in US20250340654A1.

Molecular target: Canine IL-31RA ECD-10His (canine)
Assay: ELISA, IL-31RA coated at 1 ug/mL, biotinylated IL-31 titrated, HRP-streptavidin

Sequence of Canine IL-31RA ECD-10His (canine) (chain, as listed by the source limits assumed): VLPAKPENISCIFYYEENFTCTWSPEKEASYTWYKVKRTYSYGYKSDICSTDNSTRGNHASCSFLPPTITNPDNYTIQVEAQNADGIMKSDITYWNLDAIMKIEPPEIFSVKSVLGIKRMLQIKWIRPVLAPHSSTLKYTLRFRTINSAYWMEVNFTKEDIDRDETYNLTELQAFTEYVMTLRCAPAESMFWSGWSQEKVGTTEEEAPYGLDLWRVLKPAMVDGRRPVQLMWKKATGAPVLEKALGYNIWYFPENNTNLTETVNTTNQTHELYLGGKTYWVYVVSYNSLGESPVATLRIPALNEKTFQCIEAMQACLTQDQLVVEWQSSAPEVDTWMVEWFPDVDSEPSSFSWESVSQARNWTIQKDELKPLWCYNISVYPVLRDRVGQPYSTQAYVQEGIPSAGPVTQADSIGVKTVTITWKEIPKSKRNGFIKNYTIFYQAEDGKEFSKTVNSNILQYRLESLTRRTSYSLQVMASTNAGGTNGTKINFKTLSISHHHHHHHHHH

EC50: 0.55 ng/mL
Substance: biotinylated canine IL-31 (ligand)
